Experimental data taken from the supplement of paper PMC10567573.

B1: SOAT1 (parent)
chain: GVLILFLTFFAFLHCWLNAFAEML
B2: C22orf15 (parent)
chain: PRGRAHLLPNPYQQDFLGLPEELR

Variants of: B1
Assay: protein stability index of a GFP-peptide fusion (GPS, HEK-293T) (PSI 1-6); higher = more stable
Conditions: c terminus: a fixed tail appended
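Also: lentivirally expressed fusions sorted by FACS into six bins by GFP to DsRed ratio, PSI derived from sequencing read proportions per bin multiplied by bin number.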

Protein stability index: each site, then its substitutions
W16: F 3.85, I 2.96, Y 2.31, C 2.68, H 3.94, D 2.4, P 2.19
L7: C 1.91, V 2.56, D 2.11, N 3.81, A 3.84, G 2.95, Q 2.92, P 2.68, I 2.4
M23: K 2.91, W 2.61, T 2.98, D 2.29, I 2.85, E 1.75, N 2.68, A 2.44, S 3.71
E22: K 2.31, H 3.56, M 3.66, T 2.47, S 3.37, I 2.95, C 2.74, L 2.92, N 2.79, Y 2.22
L24: F 2.23, C 3.67, S 3.29, A 2.69, Q 3.14, N 2.98, W 2.06, D 1.75
A19: Q 2.59, P 2.31, T 2.82, G 3.14, I 2.76, K 2.96, D 2.85, F 1.68, L 3.05, C 2.73, V 2.77, E 3.48, H 3.33
A11: T 3.07, R 3.9, L 1.75, F 2.48, H 2.31
G1: I 3.7, Y 2.49, W 1.61, F 2.2, E 3.49, V 3.18, P 3.53, A 3.39
A21: F 3.12, C 2.48, K 2.01, R 2.11, P 2.29, G 2.77, V 2.73, H 2.98, D 2.14, N 2.76, E 1.83
L3: M 3.1, H 2.34, A 2.52, W 3.13, P 3.1, D 2.13, E 2.74
H14: D 3.15, Q 2.47, V 1.48, M 2.07, F 1.52, G 2.45, S 2.02, I 1.95, L 1.87, E 2.94, A 2.22
L17: I 2.26, K 3.15, S 1.44, F 2.8, W 2.44, G 2.06, V 3.02, C 2.63, D 2.9
F6: M 1.35, D 1.78, Y 3.06
N18: Y 2.61, P 3.85, V 2.45, H 2.92, E 3.51, G 2.52, T 3, F 3.51, L 3.64, W 2.94
L13: G 2.86, V 2.57, E 3.16, W 3.93, S 3.65, T 3.62
F12: T 2.42, G 2.81, Y 2.75, W 2.92, C 3.26, A 2.65, M 2.87, K 3.54
C15: P 2.81, I 2.55, T 2.47, F 2.27, E 2.28, D 1.44, S 1.83, Q 3.3, L 2.97, N 3.02, G 2.01, Y 2.79
F10: H 2.17, T 3.52, E 2.27, V 2.75, Q 4.33, Y 3.58, S 2.2, R 3.84
F9: V 3.43, T 2.68, K 3.13, I 1.34, A 1.36, N 2.46, Q 2.33, G 4.01, H 4.54, S 1.94
I4: C 2.42, S 2.66, P 2.26, R 3.74, A 2.03, D 1.73, N 3.78, Y 3.33
T8: M 2.6, S 3.41, D 2.71, I 2.42, P 3.34, Y 3.57, C 1.01, L 2.04, W 1.47, F 3.81, A 3.88
F20: W 3.57, K 2.71, H 3.21, C 2.33, E 2.67, S 2.94, G 2.22, R 2.89, I 2.67
L5: R 2.57, W 2.17, C 2.84, G 2.13, Q 3.75, V 1.91, N 3.7, K 2.87, D 4.32, I 2.23
V2: F 2.32, R 3.5, E 2.17, T 2.72, S 1.98, D 2.14, Q 2.56, H 2.35, C 2.05, Y 2.31, M 2.26, I 2.62, P 1.74, A 2.01

Variants of: B2
Assay: as above
Conditions: c terminus: a fixed tail appended

Protein stability index of substitutions, site by site:
A5: Q 4.07, L 3.12, E 3.9, W 2.62, D 4.25, P 3.56, G 3.63, S 4.04, R 3.34, K 3.32, M 3.48, N 4.1, C 2.69, I 2.96, F 2.69, H 3.78, V 3.63, Y 2.98, T 4.05
H6: W 2.85, M 4.04, I 3.65, S 3.81, Q 3.75, N 4.26, K 3.87, D 4.4, E 4.58, Y 3.02, F 2.99, A 3.57, V 3.54, T 3.87, P 3.93, C 3.68, G 4.26, L 3.44, R 3.71
R2: V 3.81, F 3.31, C 2.26, I 3.62, D 3.44, A 4.04, T 4.22, E 4.69, S 4.15, G 4, W 3.33, K 3.75, H 3.87, L 3.76, Y 3.5, M 4.08, N 3.46, P 4.18, Q 4.24
P1: K 3.22, L 2.64, G 3.75, T 3.52, R 3.06, H 3.6, V 2.83, F 2.61, A 3.34, C 2.22, M 2.93, W 2.92, D 4.1, Y 3.11, N 3.69, I 2.37, Q 3.72, E 3.96, S 3.23
R4: L 3.59, N 3.99, Y 3.57, H 4.06, F 3.77, I 3.24, Q 3.73, S 3.81, V 3.86, G 4.27, C 2.85, W 2.96, K 3.36, T 3.68, M 3.42, D 4.25, A 4.23, P 3.92, E 3.96
L7: A 4.23, C 3.84, E 4.62, D 3.96
G3: I 3.83, V 3.93, E 3.82, K 3.16, H 3.79, P 3.77, W 3.27, R 3.52, Q 3.45, D 4.03, C 3.15, A 4.32, N 3.61, F 3.79, M 2.7, T 2.66, L 3.51, Y 3.72, S 3.52
